Test results published in patent US20170131285A1 (INSERM INSTITUT NATIONAL DE LA SANTE ET DE LA RECHERCHE …, published 2017).

Biological target: T1, recombinant HSP70 (Heat Shock 70 kDa Protein) (human, UniProt P0DMV8 1-641)
T1 construct: also called HSP72; human HSP70
Assay: BLI (Octet Red), biotinylated A8 on streptavidin sensors, HSP70 in solution, 1:1 model global fit
Experimental: Protein-protein interaction experiments were conducted at 25° C. in PBS with an Octet Red instrument (Forte Bio, Menlo Park, Calif., USA) by biolayer interferometry (BLI). The ligand (cmHSP70 or A8 or TLR2) was biotinylated using EZ-Link NHS-PEG₄-biotin (Thermo Fisher Scientific, Bonn, Germany) according to the manufacturer's protocol and immobilized at a concentration of 20 μg/ml on streptavidin sensors (ForteBio, Menlo Park, Calif., USA). These functionalized biosensors were dipped into black Greiner 96-well microplates agitated at […] and filled with a solution of 200 μL containing the analyte. All sensorgrams were corrected for baseline drift by subtracting a control sensor exposed to running buffer only. Each KD was determined with a 1:1 stoichiometry model using a global fit with Rmax unlinked by sensor (Forte Bio, Data analysis software version 7.1.0.89).
Protein-protein interaction experiments were conducted with an Octet Red instrument (ForteBio, USA). The ligand (A8 or TLR2) was biotinylated using EZ-Link NHS-PEG₄-biotin (2 nM, 30 min, RT, Thermo Fisher Scientific, Germany) and immobilized on streptavidin sensors (96-well plate black, ForteBio, USA). […] Each KD was determined with a 1:1 stoichiometry model using a global fit with Rmax unlinked by sensor (ForteBio, Data analysis software version 7.1.0.89).

T1 sequence (P0DMV8 whole entry): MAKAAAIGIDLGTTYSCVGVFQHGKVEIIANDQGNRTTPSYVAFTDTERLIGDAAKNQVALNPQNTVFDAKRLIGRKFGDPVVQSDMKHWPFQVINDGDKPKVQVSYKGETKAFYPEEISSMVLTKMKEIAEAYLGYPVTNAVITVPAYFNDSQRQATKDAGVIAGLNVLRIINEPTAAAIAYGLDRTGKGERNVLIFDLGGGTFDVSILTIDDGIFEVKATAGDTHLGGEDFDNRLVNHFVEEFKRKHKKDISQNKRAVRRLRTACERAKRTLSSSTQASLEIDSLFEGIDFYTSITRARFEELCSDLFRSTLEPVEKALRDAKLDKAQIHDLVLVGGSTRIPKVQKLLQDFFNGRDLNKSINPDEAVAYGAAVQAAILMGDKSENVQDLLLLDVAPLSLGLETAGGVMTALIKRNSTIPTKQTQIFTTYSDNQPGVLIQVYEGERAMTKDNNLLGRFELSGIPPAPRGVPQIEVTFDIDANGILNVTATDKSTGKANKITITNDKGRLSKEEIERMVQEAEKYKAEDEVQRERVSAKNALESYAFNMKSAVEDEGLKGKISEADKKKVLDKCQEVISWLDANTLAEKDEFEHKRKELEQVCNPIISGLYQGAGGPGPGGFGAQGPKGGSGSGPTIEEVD

- Kd: 2.2 nM
B1: peptide aptamer A8 (peptide)
peptide: SPWPRPTY
modifications: biotinylated with EZ-Link NHS-PEG4-biotin when immobilised on streptavidin sensors for BLI (site not stated); no modification stated for the solution assays
notes: also called A8 peptide aptamer; HSP70 peptide aptamer A8
